Source: patent US20250320312A1 (OXITOPE PHARMA B V, published 2025)
Residue numbers refer to the chain shown, from its start.

T1: Peptide 4: Biotin-AGGGGSGGGGSGGGGSAAA-Tyr-acid (N-terminal biotin; C-terminal acid; no PC)
T1 construct: control peptide without PC
T1 peptide: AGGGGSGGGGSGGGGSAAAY

T2: Peptide 8: Biotin-AEAAAKEAAAKEAAAKEAAAKAAA-Tyr-acid (N-terminal biotin; C-terminal acid; no PC)
T2 construct: control peptide without PC
T2 peptide: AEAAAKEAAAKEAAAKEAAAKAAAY

B1: PcOxP_DB04_H08 (scFv, V domains shown)
VH: EVQLLESGGGLVQPGGSLRLSCAASGFTFSDGYMEWVRQAPGKGLEWVAASRNKANDYTTEYADSVKGRFTISRDNSKNTLYLQMNSLRAEDTAVYYCARDYYGSSYWYFDVWGQGTLVTVSS
VL: DIQMTQSPSSLSASVGDRVTITCTASESLYSSKHKVHYLAWYQQKPGKAPKLLIYGASNLYSGVPSRFSGSGSGTDFTLTISSLQPEDFATYYCAQFYSYPLTFGGGTKVEIK
notes: scFv in periplasmic extract
B2: PcOxP_DB04_H03 (scFv, V domains shown)
VH: B1 VH with T28P, G32F
VL: DIQMTQSPSSLSASVGDRVTITCRASESLYSSLHKYLAWYQQKPGKAPKLLIYGASNLQIGVPSRFSGSGSGTDFTLTISSLQPEDFATYYCAQFYSYPLTFGGGTKVEIK
notes: scFv in periplasmic extract
B3: PcOxP_DB01_A03 (scFv, V domains shown)
VH: B1 VH with G32Y
VL: DIVMTQSPDSLAVSLGERATINCTASESLYSSKHKVHYLAWYQQKPGQPPKLLIYGASNRYIGVPDRFSGSGSGTDFTLTISSLQAEDVAVYYCAQFYSYPLTFGGGTKVEIK
notes: scFv in periplasmic extract
B4: PcOxP_DB03_H03 (scFv, V domains shown)
VH: B1 VH with F29G, G32F, A55W
VL: DIQMTQSPSSLSASVGDRVTITCTASESLSSSKHKHYLAWYQQKPGKAPKLLIYGASSRYSGVPSRFSGSGSGTDFTLTISSLQPEDFATYYCAQFYSYPLTFGGGTKVEIK
notes: scFv in periplasmic extract
B5: PcOxP_DB01_D04 (scFv, V domains shown)
VH: B1 VH with G32F
VL: B3 VL with Y30W
notes: scFv in periplasmic extract
B6: PcOxP_DB01_B10 (scFv, V domains shown)
VH: B1 VH with G32F, E61T, Y107H
VL: B3 VL with H34G, A95V
notes: scFv in periplasmic extract
B7: PcOxP_DB01_A08 (scFv, V domains shown)
VH: B1 VH with F29Q, G32F, S51I, D57S
VL: B3 VL with L29V, H34N, V36K
notes: scFv in periplasmic extract
B8: PcOxP_DB01_D06 (scFv, V domains shown)
VH: B1 VH with G32F, V112S
VL: B3 VL with S99I
notes: scFv in periplasmic extract
B9: PcOxP_DB01_C07 (scFv, V domains shown)
VH: B1 VH with G32Y
VL: B3 VL with I62D
notes: scFv in periplasmic extract
B10: PcOxP_DB01_B02 (scFv, V domains shown)
VH: B1 VH with F27G, G32F, D57S, E61A
VL: B3 VL
notes: scFv in periplasmic extract
B11: PcOxP_DB01_B12 (scFv, V domains shown)
VH: B1 VH with D31S, G32Y, A55G, D57S
VL: B3 VL with A95G
notes: scFv in periplasmic extract
B12: PcOxP_DB01_D01 (scFv, V domains shown)
VH: B1 VH with D31S, G32Y
VL: B3 VL with S32P, S99I
notes: scFv in periplasmic extract
B13: PcOxP_DB01_C10 (scFv, V domains shown)
VH: B1 VH with G32F
VL: B3 VL with A25S, E27Q, Y30L, K33S, K35N, V36K, H37N
notes: scFv in periplasmic extract
B14: PcOxP_DB01_A05 (scFv, V domains shown)
VH: B1 VH with G32Y, S105N
VL: B3 VL
notes: scFv in periplasmic extract
B15: PcOxP_DB01_C09 (scFv, V domains shown)
VH: B1 VH with G32F
VL: B3 VL with E27Q, L29V, H34N
notes: scFv in periplasmic extract
B16: PcOxP_DB01_A04 (scFv, V domains shown)
VH: B1 VH with F29H, G32F
VL: B3 VL
notes: scFv in periplasmic extract
B17: PcOxP_DB01_D12 (scFv, V domains shown)
VH: B1 VH with G32Y, A55Y
VL: B3 VL
notes: scFv in periplasmic extract
B18: PcOxP_DB04_H10 (scFv, V domains shown)
VH: B1 VH with F27A, G32F, M34V
VL: B1 VL with A57P, L60R, S62I
notes: scFv in periplasmic extract
B19: PcOxP_DB01_D07 (scFv, V domains shown)
VH: B1 VH with G32Y, S105D
VL: B3 VL with T24K, E27Q, L29V, Y30L, H34N, K35N, H37N, I62S
notes: scFv in periplasmic extract
B20: PcOxP_DB01_E01 (scFv, V domains shown)
VH: B1 VH with F29S, G32F
VL: B3 VL with Y61V, Q96N
notes: scFv in periplasmic extract
B21: PcOxP_DB01_B03 (scFv, V domains shown)
VH: B1 VH with D31S, G32Y
VL: B3 VL
notes: scFv in periplasmic extract
B22: PcOxP_DB01_B06 (scFv, V domains shown)
VH: B1 VH with D31S, G32Y, A55Y, Y107T
VL: B3 VL
notes: scFv in periplasmic extract
B23: PcOxP_DB01_D11 (scFv, V domains shown)
VH: B1 VH with D31S, G32Y, F110N
VL: B3 VL with H34W
notes: scFv in periplasmic extract
B24: PcOxP_DB01_D10 (scFv, V domains shown)
VH: B1 VH with F29D, G32F
VL: B3 VL
notes: scFv in periplasmic extract

Target: T1, Peptide 4: …
Assay: scFv ELISA
In short: (§1)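 Bound scFv was read as OD450 after HRP–anti-V5 detection, TMB development and HCl stop. PPE with BSA was incubated 1 h at RT on BSA-blocked wells coated overnight at 4° C. with peptide, or on streptavidin wells loaded 1 h with biotinylated PC-peptides at 1 μg/mL.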

Row | Binder | OD450
1 | B1 | 0.07 OD450
2 | B2 | 0.07 OD450
3 | B3 | 0.05 OD450
4 | B4 | 0.07 OD450
5 | B5 | 0.08 OD450
6 | B6 | 0.05 OD450
7 | B7 | 0.05 OD450
8 | B8 | 0.04 OD450
9 | B9 | 0.04 OD450
10 | B10 | 0.06 OD450
11 | B11 | 0.06 OD450
12 | B12 | 0.05 OD450
13 | B13 | 0.04 OD450
14 | B14 | 0.04 OD450
15 | B15 | 0.05 OD450
16 | B16 | 0.04 OD450
17 | B17 | 0.05 OD450
18 | B18 | 0.08 OD450
19 | B19 | 0.04 OD450
20 | B20 | 0.05 OD450
21 | B21 | 0.05 OD450
22 | B22 | 0.05 OD450
23 | B23 | 0.06 OD450
24 | B24 | 0.05 OD450

Target: T2, Peptide 8: …
Assay: scFv ELISA
In short: as §1

Row | Binder | OD450
25 | B1 | 0.06 OD450
26 | B2 | 0.08 OD450
27 | B3 | 0.04 OD450
28 | B4 | 0.07 OD450
29 | B5 | 0.06 OD450
30 | B6 | 0.04 OD450
31 | B7 | 0.05 OD450
32 | B8 | 0.04 OD450
33 | B9 | 0.04 OD450
34 | B10 | 0.05 OD450
35 | B11 | 0.05 OD450
36 | B12 | 0.04 OD450
37 | B13 | 0.04 OD450
38 | B14 | 0.04 OD450
39 | B15 | 0.05 OD450
40 | B16 | 0.04 OD450
41 | B17 | 0.05 OD450
42 | B18 | 0.07 OD450
43 | B19 | 0.04 OD450
44 | B20 | 0.04 OD450
45 | B21 | 0.05 OD450
46 | B22 | 0.05 OD450
47 | B23 | 0.05 OD450
48 | B24 | 0.04 OD450

Target: Peptide 1: Biotin-…-[Tyr(PC)]-acid
Assay: scFv ELISA

Row | Binder | OD450
49 | B1 | 0.85 OD450
50 | B2 | 0.8 OD450
51 | B3 | 0.86 OD450
52 | B4 | 0.27 OD450
53 | B5 | 0.45 OD450
54 | B6 | 0.52 OD450
55 | B7 | 0.16 OD450
56 | B8 | 0.41 OD450
57 | B9 | 0.53 OD450
58 | B10 | 0.68 OD450
59 | B11 | 0.56 OD450
60 | B12 | 0.85 OD450
61 | B13 | 0.13 OD450
62 | B14 | 0.83 OD450
63 | B15 | 0.27 OD450
64 | B16 | 0.31 OD450
65 | B17 | 0.85 OD450
66 | B18 | 0.54 OD450
67 | B19 | 0.14 OD450
68 | B20 | 0.75 OD450
69 | B21 | 0.82 OD450
70 | B22 | 0.79 OD450
71 | B23 | 1.37 OD450
72 | B24 | 0.15 OD450

Target: BSA (UniProt P02769)
Sequence (P02769 25-607 limits assumed): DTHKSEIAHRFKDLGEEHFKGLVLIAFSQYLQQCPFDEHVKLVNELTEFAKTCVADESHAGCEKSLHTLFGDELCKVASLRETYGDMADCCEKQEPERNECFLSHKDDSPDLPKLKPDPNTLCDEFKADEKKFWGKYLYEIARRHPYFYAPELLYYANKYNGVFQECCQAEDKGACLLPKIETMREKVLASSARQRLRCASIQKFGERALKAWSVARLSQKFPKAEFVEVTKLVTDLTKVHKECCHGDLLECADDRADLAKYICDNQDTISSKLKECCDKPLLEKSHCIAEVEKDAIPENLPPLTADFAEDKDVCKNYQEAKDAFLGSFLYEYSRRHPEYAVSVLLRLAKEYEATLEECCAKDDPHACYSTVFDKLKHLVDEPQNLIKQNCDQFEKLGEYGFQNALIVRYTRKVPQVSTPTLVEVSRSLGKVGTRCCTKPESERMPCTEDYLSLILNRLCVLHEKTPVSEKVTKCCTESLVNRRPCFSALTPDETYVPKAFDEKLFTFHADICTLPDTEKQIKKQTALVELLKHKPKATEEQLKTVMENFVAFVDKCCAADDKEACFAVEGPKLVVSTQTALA
Assay: scFv ELISA

Row | Binder | OD450
73 | B1 | 0.09 OD450
74 | B2 | 0.1 OD450
75 | B3 | 0.07 OD450
76 | B4 | 0.12 OD450
77 | B5 | 0.07 OD450
78 | B6 | 0.08 OD450
79 | B7 | 0.09 OD450
80 | B8 | 0.06 OD450
81 | B9 | 0.05 OD450
82 | B10 | 0.09 OD450
83 | B11 | 0.09 OD450
84 | B12 | 0.06 OD450
85 | B13 | 0.07 OD450
86 | B14 | 0.06 OD450
87 | B15 | 0.07 OD450
88 | B16 | 0.07 OD450
89 | B17 | 0.06 OD450
90 | B18 | 0.1 OD450
91 | B19 | 0.05 OD450
92 | B20 | 0.05 OD450
93 | B21 | 0.08 OD450
94 | B22 | 0.08 OD450
95 | B23 | 0.08 OD450
96 | B24 | 0.06 OD450

Target: Peptide 5: Biotin-…-[Tyr(PC)]-acid
Assay: scFv ELISA

Row | Binder | OD450
97 | B1 | 1.42 OD450
98 | B2 | 1.05 OD450
99 | B3 | 1.38 OD450
100 | B4 | 1.32 OD450
101 | B5 | 0.87 OD450
102 | B6 | 1.11 OD450
103 | B7 | 1.12 OD450
104 | B8 | 0.69 OD450
105 | B9 | 1.1 OD450
106 | B10 | 1.41 OD450
107 | B11 | 1.19 OD450
108 | B12 | 1.12 OD450
109 | B13 | 0.53 OD450
110 | B14 | 1.28 OD450
111 | B15 | 0.94 OD450
112 | B16 | 0.75 OD450
113 | B17 | 1.48 OD450
114 | B18 | 1.01 OD450
115 | B19 | 0.6 OD450
116 | B20 | 1.48 OD450
117 | B21 | 1.25 OD450
118 | B22 | 1.45 OD450
119 | B23 | 2.09 OD450
120 | B24 | 0.44 OD450
